Measurements: publication doi:10.1101/2022.10.25.513744
Where “and” joins values, the source holds several entries; their conditions need not be identical. Equal entries are not always repeated.

How the values were obtained:
[1] = target: Miro1^P13V ΔTM (UniProt Q8IXI2); test: mass photometry
[2] = target: Miro1^P13V-Strep (UniProt Q8IXI2); test: pull-down

Chain of UniProt Q8IXI2 (Q8IXI2 whole entry P13V): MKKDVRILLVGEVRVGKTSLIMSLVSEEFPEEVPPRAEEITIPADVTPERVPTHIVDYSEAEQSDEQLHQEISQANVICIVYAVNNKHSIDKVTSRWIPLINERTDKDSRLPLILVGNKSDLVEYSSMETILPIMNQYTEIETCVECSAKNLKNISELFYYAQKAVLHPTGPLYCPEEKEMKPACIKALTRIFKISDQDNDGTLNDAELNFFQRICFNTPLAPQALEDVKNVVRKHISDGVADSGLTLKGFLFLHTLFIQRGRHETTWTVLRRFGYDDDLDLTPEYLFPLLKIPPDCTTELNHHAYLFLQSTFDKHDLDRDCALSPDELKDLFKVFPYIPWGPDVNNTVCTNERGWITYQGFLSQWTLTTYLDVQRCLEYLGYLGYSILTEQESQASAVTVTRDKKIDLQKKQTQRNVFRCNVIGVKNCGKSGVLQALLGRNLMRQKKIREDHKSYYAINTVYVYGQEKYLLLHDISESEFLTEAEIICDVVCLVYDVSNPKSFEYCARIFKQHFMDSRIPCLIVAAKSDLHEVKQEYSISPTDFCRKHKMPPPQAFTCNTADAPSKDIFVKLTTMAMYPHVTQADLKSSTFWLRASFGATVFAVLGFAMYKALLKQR

Row | percent forming dimers [1] [%] | stoichiometry N [1] | reduction of the TRAK1:Miro1-Strep band intensity against Miro1^WT [2] [%] | Molecule
1 | 3 | 3 and 4 |  | Miro1^P13V ΔTM (from UniProt Q8IXI2 1-618) (domain or fragment)
2 |  |  | 30 | TRAK1^562-635 (domain or fragment) MSFSSRSYLPEKLQIVKPLEGSATLHHWQQLAQPHLGGILDPRPGVVTKGFRTLDVDLDEVYCLNDFEEDDTGD
